T1: TACI huFc (R&D, #174TC) (human, UniProt O14836 2-166, limits assumed)
T1 construct: Bought reagent; also called human TACI; not shown: human Fc (huFc)
T1 sequence (looked up): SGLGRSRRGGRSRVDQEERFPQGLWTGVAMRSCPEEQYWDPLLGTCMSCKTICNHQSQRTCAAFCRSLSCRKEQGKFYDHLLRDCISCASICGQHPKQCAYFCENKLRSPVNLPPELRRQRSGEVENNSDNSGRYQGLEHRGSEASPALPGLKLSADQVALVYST

T2: BAFF R (R&D, #1162-BR) (human, UniProt Q96RJ3 7-71, limits assumed)
T2 construct: Bought reagent; also called human BAFF R
T2 sequence (looked up): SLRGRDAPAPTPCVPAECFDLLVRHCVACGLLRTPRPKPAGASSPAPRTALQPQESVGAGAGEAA

T3: recombinant human BCMA Fc (human, UniProt Q02223 1-54)
T3 construct: not shown: Fc
T3 sequence: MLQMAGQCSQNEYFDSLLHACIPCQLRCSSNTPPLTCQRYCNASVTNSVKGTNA

T4: human BCMA, full length, on cells (human, UniProt Q02223 1-184)
T4 construct: the cell line is named in each row's assay; also called K562-BCMA; K562 stably expressing BCMA
T4 sequence: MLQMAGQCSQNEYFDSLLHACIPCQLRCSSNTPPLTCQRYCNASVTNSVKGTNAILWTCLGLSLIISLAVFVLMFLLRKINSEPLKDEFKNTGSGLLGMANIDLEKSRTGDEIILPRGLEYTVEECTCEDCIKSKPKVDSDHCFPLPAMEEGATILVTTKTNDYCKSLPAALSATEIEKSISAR


What was measured:
BCMA_huFc [1] = target: BCMA_huFc (human); experiment: biacore, supernatant of the clone after reinduction
TACI huFc (R&D, #174TC) = target: T1, TACI huFc (R&D, #174TC); experiment: ELISA(scFv), 2 ug/ml coated antigen, HRP anti-Flag tag antibody
Description: (§1) 2 ug/ml recombinant human BCMA Fc, mouse BCMA Fc, TACI huFc (R&D, #174TC), BAFF R (R&D, #1162-BR) were coated on immunoplates at 4° C. overnight. The next day, 300 μl/well of 2% MPBS was added for 2 hours, then 200 nM purified antibody (scFv format) was added and incubated at 37° C. for 1 hour, washed three times with PBST (PBS containing 0.05% Tween-20), and washed three times with PBS. And then 1:4000 diluted HRP-labeled anti-Flag tag antibody (sigma, #A8592-1MG) was added, incubated for 1 hour at 37° C., washed three times with PBST (PBS containing 0.05% Tween-20) and washed three times with PBS. 100 ul/well of TMBS substrate was added and developed for 10-15 minutes. The reaction was quenched by adding 50 ul of 2 M sulfuric acid.

BAFF R (R&D, #1162-BR) = target: T2, BAFF R (R&D, #1162-BR); experiment: as above
Description: as §1

[2] = target: T3, recombinant human BCMA Fc; experiment: ELISA(scFv), 2 ug/ml coated antigen, 200 nM scFv, HRP anti-Flag tag antibody
Description: as §1

BCMA_huFc [3] = target: BCMA_huFc (human); experiment: biacore, supernatant of the clone after reinduction; column headed Dissociation constant (Kd, S^-1)
[4] = target: T4, human BCMA, full length, on cells; experiment: flow cytometry on K562-BCMA cells, scFv_Fc titrated, FITC anti-human Fc
Description: K562 and K562 cells (K562-BCMA) stably expressing human BCMA were used and harvested, washed with complete growth medium, and plated into U-bottom microtiter plates at about 1 to 5×10⁵ cells/well. The gradient-diluted scFv_Fc fusion antibody was incubated with K562-BCMA/K562 for 30 minutes on ice, and then incubated with FITC-labeled anti-human Fc as a secondary antibody. After two washing steps, the analysis was performed using a Guava easyCyte™ HT System, and the experimental data was processed using GraphPad Prism to obtain an EC50.

Binder	fold lower Kd (dissociation rate) than parental clone 23F10 (BCMA_huFc [1]) [times]	binding result (TACI huFc (R&D, #174TC))	binding result (BAFF R (R&D, #1162-BR))	binding result [2]	koff (BCMA_huFc [3]) [s⁻¹]	EC50 [4] [nM]
25C2 scFv (scFv, scFv format; also called clone 25C2) scFv: EVQLLESGGGLVQPGGSLRLSCAASGFTFGGNAMSWVRQAPGKGLEWVSAISGNGGSTFYADSVKGRFTISRDNSKNTLYLQMNSLRAEDTAVYYCAKVRPFWGTFDYWGQGTLVTVSSGGGGSGGGGSGGGGSEIVLTQSPGTLSLSPGERATLSCRASQSVSSSYLAWYQQKPGQAPRLLIYGASSRATGIPDRFSGSGSGTDFTLTISRLEPEDFAVYYCQQYFNPPEYTFGQGTKVEIKR	10	no binding (tested: 200 nM)	no binding (tested: 200 nM)	binds	0.000364	
25D2 scFv (scFv, scFv format; also called clone 25D2) scFv: EVQLLESGGGLVQPGGSLRLSCAASGFTFRSYAMSWVRQAPGKGLEWVSAISGGGGNTFYADSVKGRFTISRDNSKNTLYLQMNSLRAEDTAVYYCAKVRPFWGTFDYWGQGTLVTVSSGGGGSGGGGSGGGGSEIVLTQSPGTLSLSPGERATLSCRASQSVSSSYLAWYQQKPGQAPRLLIYGASSRATGIPDRFSGSGSGTDFTLTISRLEPEDFAVYYCQQYFNPPEYTFGQGTKVEIKR	10	no binding (tested: 200 nM)	no binding (tested: 200 nM)	binds	0.000374	
25C2 (scFv_Fc) (Fc fusion, also called clone 25C2; not shown: human Fc fragment of vector V152) EVQLLESGGGLVQPGGSLRLSCAASGFTFGGNAMSWVRQAPGKGLEWVSAISGNGGSTFYADSVKGRFTISRDNSKNTLYLQMNSLRAEDTAVYYCAKVRPFWGTFDYWGQGTLVTVSSGGGGSGGGGSGGGGSEIVLTQSPGTLSLSPGERATLSCRASQSVSSSYLAWYQQKPGQAPRLLIYGASSRATGIPDRFSGSGSGTDFTLTISRLEPEDFAVYYCQQYFNPPEYTFGQGTKVEIK						2.59
25D2 (scFv_Fc) (Fc fusion, also called clone 25D2; not shown: human Fc fragment of vector V152) EVQLLESGGGLVQPGGSLRLSCAASGFTFRSYAMSWVRQAPGKGLEWVSAISGGGGNTFYADSVKGRFTISRDNSKNTLYLQMNSLRAEDTAVYYCAKVRPFWGTFDYWGQGTLVTVSSGGGGSGGGGSGGGGSEIVLTQSPGTLSLSPGERATLSCRASQSVSSSYLAWYQQKPGQAPRLLIYGASSRATGIPDRFSGSGSGTDFTLTISRLEPEDFAVYYCQQYFNPPEYTFGQGTKVEIK						1.89
